Laboratory results reported in PMC4267655, “Brr2p carboxy-terminal Sec63 domain modulates Prp16 splicing RNA helicase” (Nucleic Acids Research, 2014).
Residue numbers refer to the chain shown, from its start. Names may count otherwise. Values belong to the molecule of their own block, whether it stands above or below them.

Legend:
Prp22p = target: T1, Prp22p (Saccharomyces cerevisiae, UniProt P24384); experiment: ATPase assay, released Pi; format: biochemical; conditions: 1 mM ATP, 50 ng/μl total yeast RNA, 20 mM Tris-HCl pH 7.5, 75 mM KCl, 1 mM MgSO4, 30°C
T1 construct: gene PRP22; recombinant from E. coli BL21 RIL, purified as previously described
T1 sequence (P24384 1-1145): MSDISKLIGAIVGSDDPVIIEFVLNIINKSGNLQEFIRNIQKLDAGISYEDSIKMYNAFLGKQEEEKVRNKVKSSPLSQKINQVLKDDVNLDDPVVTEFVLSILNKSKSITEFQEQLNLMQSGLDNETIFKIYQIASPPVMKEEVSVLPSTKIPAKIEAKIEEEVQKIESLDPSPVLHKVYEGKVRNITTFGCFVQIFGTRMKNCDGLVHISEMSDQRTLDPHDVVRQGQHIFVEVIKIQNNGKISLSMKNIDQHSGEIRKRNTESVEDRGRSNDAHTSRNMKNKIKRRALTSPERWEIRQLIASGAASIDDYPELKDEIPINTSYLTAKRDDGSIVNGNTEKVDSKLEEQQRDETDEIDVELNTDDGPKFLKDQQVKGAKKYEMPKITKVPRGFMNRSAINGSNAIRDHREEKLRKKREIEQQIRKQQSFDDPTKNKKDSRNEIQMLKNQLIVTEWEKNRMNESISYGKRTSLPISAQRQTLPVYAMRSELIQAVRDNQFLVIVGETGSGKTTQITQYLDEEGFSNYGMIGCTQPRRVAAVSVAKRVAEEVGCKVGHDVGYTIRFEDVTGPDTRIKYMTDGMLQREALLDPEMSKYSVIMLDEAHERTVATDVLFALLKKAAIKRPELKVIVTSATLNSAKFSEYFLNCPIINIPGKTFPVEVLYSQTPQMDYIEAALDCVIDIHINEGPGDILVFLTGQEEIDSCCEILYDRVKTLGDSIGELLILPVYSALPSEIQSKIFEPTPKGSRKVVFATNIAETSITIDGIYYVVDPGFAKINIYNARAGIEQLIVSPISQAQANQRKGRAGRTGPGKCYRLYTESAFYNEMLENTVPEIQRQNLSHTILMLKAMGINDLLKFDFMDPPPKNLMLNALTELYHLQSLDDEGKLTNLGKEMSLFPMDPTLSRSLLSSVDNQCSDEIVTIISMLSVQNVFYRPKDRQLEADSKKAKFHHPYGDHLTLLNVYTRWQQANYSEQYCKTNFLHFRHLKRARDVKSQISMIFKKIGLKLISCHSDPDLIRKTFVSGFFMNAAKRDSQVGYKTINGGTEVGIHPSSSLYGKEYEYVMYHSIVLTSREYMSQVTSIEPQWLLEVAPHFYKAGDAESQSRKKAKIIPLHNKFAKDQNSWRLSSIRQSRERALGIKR

Ded1p = target: T2, Ded1p (Saccharomyces cerevisiae, UniProt P06634); experiment: ATPase assay, released Pi; format: biochemical; conditions: 5 nM enzyme, 1 mM ATP, 50 ng/μl total yeast RNA, 20 mM Tris-HCl pH 7.5, 50 mM KAc, 1 mM MgOAc, 30°C
T2 construct: gene DED1; recombinant from E. coli BL21 RIL, purified as previously described

[1] = target: Brr2 H2-Sec63-2p L1951P, Gal4AD-prey fusion, P32639; experiment: Y2H interaction assay; conditions: chain shown with the change; growth on -LWH medium with 3-AT; parent: 50.0
[2] = substrate: Nc1ncnc2c1ncn2[C@@H]1O[C@H](COP(=O)(O)OP(=O)(O)OP(=O)(O)O)[C@@H](O)[C@H]1O; experiment: ATPase assay, released Pi; format: biochemical, Saccharomyces cerevisiae; conditions: 10 nM enzyme, 50 ng/μl total yeast RNA, no Sec63-2p, 20 mM Tris-HCl pH 7.5, 75 mM KCl, 1 mM MgSO4, 30°C
Source text: ATPase assay, released Pi on Prp16p

[3] = target: T3, recombinant Prp16p (wild type) (budding yeast, UniProt P15938 1-1071); experiment: cell-based or functional assay
T3 sequence (looked up): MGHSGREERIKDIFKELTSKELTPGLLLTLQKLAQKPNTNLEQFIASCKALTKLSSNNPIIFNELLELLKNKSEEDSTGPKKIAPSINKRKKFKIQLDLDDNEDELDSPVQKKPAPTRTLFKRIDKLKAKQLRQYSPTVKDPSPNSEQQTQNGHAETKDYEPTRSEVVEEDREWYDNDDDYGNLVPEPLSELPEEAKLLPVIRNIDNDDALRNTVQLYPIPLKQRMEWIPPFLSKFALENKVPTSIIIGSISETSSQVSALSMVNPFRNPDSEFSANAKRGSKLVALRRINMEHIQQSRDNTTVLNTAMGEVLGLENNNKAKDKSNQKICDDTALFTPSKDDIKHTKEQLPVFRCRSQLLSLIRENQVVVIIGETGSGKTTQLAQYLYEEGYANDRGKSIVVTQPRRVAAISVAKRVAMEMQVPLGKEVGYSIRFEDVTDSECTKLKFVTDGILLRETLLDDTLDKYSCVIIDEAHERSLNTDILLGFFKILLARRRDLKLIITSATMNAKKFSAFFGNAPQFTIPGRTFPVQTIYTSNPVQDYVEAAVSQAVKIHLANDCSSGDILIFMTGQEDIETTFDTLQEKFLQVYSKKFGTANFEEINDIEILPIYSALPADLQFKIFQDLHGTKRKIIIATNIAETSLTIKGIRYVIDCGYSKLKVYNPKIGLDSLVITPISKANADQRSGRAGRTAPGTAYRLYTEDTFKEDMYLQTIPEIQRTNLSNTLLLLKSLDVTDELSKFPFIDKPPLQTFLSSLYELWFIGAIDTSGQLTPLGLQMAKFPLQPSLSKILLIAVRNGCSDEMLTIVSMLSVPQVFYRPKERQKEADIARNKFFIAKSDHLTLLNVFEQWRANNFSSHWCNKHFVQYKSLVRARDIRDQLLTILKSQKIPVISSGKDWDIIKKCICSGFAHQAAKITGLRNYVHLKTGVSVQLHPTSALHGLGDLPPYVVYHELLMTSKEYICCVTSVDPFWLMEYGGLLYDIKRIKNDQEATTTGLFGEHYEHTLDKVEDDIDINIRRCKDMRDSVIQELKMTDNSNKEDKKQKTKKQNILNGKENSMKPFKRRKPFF

[4] = target: T3, recombinant Prp16p (wild type); experiment: native gel or EMSA; apparent; Prp16p (300 nM) with 2-nM 32P-labelled 44-nt ssRNA and increasing amounts of Sec63-2p or Sec63-2 R1899Gp; loss of the Prp16p-RNA complex; buffer of the Prp16p ATPase assay without ATP; conditions: both partners purified
Prp16p = target: T4, Prp16p (UniProt P15938 1-1071); experiment: EMSA; no ATP; 2 nM RNA; EMSA in the Prp16p ATPase assay buffer without ATP (composition, pH and temperature not in the material), 2 nM 5' 32P-labeled RNA; conditions: protein: recombinant; tags: His (pET22b-PRP16-His); label: 5' 32P; single stranded
T4 sequence: T3 sequence (looked up)

Brr2 H2-Sec63-2p L1951P, Gal4AD-prey fusion, P32639, sequence (P32639 whole entry L1951P, the tested form may be a part): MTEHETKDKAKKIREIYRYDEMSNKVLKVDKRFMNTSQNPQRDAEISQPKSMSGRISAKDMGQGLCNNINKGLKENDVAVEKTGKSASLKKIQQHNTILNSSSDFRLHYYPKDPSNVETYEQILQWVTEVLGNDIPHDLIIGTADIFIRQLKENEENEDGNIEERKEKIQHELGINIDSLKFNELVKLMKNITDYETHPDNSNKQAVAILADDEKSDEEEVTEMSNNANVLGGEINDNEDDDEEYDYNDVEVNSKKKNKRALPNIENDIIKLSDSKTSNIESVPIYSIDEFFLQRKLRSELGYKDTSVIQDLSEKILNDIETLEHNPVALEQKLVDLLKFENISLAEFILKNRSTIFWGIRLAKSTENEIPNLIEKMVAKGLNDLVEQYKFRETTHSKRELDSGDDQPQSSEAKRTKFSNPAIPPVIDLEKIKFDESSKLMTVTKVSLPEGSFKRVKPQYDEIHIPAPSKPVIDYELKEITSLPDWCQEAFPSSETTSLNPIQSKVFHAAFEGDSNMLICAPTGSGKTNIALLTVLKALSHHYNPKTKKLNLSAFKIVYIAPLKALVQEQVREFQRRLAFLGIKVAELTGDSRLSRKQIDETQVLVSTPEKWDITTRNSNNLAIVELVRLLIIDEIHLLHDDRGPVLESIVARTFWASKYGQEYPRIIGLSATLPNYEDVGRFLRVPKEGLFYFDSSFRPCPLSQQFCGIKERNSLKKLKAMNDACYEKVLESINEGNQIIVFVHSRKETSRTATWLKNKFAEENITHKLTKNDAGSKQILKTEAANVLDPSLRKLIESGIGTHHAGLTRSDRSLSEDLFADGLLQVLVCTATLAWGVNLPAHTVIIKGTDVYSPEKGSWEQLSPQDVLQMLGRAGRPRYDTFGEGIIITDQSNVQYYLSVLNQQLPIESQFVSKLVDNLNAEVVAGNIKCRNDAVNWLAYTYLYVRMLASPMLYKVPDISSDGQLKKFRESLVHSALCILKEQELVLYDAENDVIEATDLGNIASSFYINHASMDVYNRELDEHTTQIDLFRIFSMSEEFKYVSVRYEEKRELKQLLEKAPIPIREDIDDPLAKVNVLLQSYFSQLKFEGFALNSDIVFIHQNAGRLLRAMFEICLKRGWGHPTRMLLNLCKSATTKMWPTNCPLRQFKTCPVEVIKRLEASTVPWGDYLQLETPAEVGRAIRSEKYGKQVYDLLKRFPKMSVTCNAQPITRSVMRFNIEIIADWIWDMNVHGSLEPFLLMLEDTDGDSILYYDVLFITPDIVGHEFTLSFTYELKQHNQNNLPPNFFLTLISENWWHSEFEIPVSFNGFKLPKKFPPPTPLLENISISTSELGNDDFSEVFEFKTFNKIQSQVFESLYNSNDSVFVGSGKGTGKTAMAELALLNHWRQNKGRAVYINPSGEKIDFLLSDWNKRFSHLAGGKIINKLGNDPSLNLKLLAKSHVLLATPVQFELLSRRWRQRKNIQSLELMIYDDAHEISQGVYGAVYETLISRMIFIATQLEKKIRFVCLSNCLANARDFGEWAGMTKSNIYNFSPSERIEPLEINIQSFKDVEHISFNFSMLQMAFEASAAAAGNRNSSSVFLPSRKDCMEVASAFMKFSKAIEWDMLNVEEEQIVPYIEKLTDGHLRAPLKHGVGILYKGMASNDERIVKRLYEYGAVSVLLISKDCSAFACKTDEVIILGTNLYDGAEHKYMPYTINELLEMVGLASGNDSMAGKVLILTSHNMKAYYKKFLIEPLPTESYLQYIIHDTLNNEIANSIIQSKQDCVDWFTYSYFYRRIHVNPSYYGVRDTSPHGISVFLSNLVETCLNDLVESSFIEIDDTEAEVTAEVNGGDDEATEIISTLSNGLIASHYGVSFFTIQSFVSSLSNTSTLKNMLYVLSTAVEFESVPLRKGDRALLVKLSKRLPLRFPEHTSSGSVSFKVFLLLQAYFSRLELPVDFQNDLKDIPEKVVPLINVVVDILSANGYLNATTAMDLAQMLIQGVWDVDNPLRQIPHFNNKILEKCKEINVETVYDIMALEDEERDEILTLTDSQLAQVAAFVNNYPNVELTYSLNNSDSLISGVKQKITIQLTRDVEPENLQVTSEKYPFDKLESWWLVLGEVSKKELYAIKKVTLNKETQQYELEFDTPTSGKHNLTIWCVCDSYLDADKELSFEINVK
T2 sequence (P06634 2-604): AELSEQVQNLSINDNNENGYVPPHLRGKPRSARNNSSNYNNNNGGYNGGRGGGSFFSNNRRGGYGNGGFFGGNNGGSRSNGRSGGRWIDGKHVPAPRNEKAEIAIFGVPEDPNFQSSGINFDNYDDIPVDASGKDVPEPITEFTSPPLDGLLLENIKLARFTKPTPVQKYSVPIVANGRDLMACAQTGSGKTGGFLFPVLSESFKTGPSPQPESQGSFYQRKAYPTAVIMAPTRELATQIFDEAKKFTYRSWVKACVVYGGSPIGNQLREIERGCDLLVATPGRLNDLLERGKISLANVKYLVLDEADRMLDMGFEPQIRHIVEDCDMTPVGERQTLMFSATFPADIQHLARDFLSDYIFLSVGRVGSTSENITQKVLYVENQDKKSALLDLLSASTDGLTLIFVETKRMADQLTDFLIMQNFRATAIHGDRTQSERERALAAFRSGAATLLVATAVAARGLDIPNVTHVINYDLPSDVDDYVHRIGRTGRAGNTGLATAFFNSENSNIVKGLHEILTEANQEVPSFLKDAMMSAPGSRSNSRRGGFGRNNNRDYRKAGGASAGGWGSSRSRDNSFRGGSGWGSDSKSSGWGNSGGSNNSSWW

Molecule: Nc1ncnc2c1ncn2[C@@H]1O[C@H](COP(=O)(O)OP(=O)(O)OP(=O)(O)O)[C@@H](O)[C@H]1O [ATP]
ATPase assay, released Pi (Prp22p): no effect of Sec63-2p on the ATPase activities of Ded1p | ATPase assay, released Pi (Ded1p): no effect of Sec63-2p on the ATPase activities of Ded1p

B1: m21; m1 Prp16p:R456K; Prp16p:G691R; Brr2 H2-Sec63-2:L1951P (protein)
chain: T3 sequence (looked up) with R456K, G691R
other: maximal [3AT] tolerated [1]: 0 µM

B2: Prp16p (Saccharomyces cerevisiae S288C) (protein)
chain: T3 sequence (looked up)
notes: recombinant from E. coli BL21 RIL, NiNTA purified (His-tagged)
Km [2]: 751 ± 181 µM | kcat [2]: 3.05 ± 0.683 s⁻¹

B3: m21; m1 Prp16p:R686I; Brr2 H2-Sec63-2:L1951P (protein)
chain: T3 sequence (looked up) with R686I
other: maximal [3AT] tolerated [1]: 200 µM

B4: m21; m1 Prp16p:Q685H; Brr2 H2-Sec63-2:L1951P (protein)
chain: T3 sequence (looked up) with Q685H
other: maximal [3AT] tolerated [1]: 0 µM

B5: m21; m1 Prp16p:D473E; Brr2 H2-Sec63-2:L1951P (protein)
chain: T3 sequence (looked up) with D473E
other: maximal [3AT] tolerated [1]: 0 µM

B6: m21; m1 Prp16p:R686Q; Brr2 H2-Sec63-2:L1951P (protein)
chain: T3 sequence (looked up) with R686Q
other: maximal [3AT] tolerated [1]: 200 µM

ATPase activity of Prp16p (10 nM) in vitro with increasing molar excess of Sec63-2p, in presence of 50-ng/μl total yeast RNA [3]: 2 fold | Kd (dissociation constant) [4]: 479 ± 2 nM
B7: recombinant Brr2 Sec63-2p (domain or fragment, budding yeast, UniProt P32639 1846-2160, looked up)
chain: TLSNGLIASHYGVSFFTIQSFVSSLSNTSTLKNMLYVLSTAVEFESVPLRKGDRALLVKLSKRLPLRFPEHTSSGSVSFKVFLLLQAYFSRLELPVDFQNDLKDILEKVVPLINVVVDILSANGYLNATTAMDLAQMLIQGVWDVDNPLRQIPHFNNKILEKCKEINVETVYDIMALEDEERDEILTLTDSQLAQVAAFVNNYPNVELTYSLNNSDSLISGVKQKITIQLTRDVEPENLQVTSEKYPFDKLESWWLVLGEVSKKELYAIKKVTLNKETQQYELEFDTPTSGKHNLTIWCVCDSYLDADKELSFEI
notes: Brr2p, budding yeast, carboxy-terminal Sec63-2 domain; detected with anti-His-HRP antibodies; also called WT Sec63-2p; Brr2 Sec63-2p domain; source: E. coli BL21 RIL, purified (Hi-Trap IMAC HP charged with Ni)

Kd (dissociation constant) [4]: 3097 ± 3 nM
B8: recombinant Brr2 Sec63-2 R1899Gp (domain or fragment, budding yeast, UniProt P32639 1846-2160, looked up)
chain: B7 chain with R54G
notes: Brr2p, budding yeast, carboxy-terminal Sec63-2 domain; also called Sec63-2 R1899G mutant protein; Brr2-R1899G mutant protein; source: E. coli BL21 RIL, purified (Hi-Trap IMAC HP charged with Ni)

Molecule: GGGCGAAUUCAAAACAAAACAAAACUAGCACCGUAAAGCAAGCU (ssRNA) [44-nt ssRNA]
binding result (Prp16p): binds
